In article PMC9352680, “A comprehensive thermodynamic model for RNA binding by the Saccharomyces cerevisiae Pumilio protein PUF4”:

T1: PUF4 RNA-binding domain (Saccharomyces cerevisiae, UniProt P25339 537-888)
T1 sequence: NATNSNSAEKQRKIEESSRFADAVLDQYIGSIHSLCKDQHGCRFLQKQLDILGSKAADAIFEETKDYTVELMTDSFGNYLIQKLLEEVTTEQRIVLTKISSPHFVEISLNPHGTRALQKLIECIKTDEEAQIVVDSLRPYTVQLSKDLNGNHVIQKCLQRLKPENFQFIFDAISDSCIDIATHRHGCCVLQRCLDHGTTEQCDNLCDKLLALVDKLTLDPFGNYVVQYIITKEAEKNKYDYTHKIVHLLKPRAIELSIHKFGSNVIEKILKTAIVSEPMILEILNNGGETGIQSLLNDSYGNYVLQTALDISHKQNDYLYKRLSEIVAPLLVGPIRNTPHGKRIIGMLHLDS


Target: T1, PUF4 RNA-binding domain
Assay: Mg; RNA-MaP; 20 mM Na-HEPES pH 7.4, 30 mM KOAc, 0.75 mM MgCl2, 0.1% Tween-20, 5% glycerol, 0.1 mg/mL BSA, 2 mM DTT; 25 C; 0.0125-409.6 nM protein
Conditions: tags: N-His6-TEV cleaved; C-SNAP kept, Cy3B-labelled; label: tethered on chip by stalled RNA polymerase

Binder	Kd [nM]
UCUCUUCUACACUAUAACUCUCUU (ssRNA) [Id_ii_S1_P3E.4_K3.3_C3.2_H3.3_A3.1_F3.1_T3.2_[T9A]_[A10C]]	> 2300
UCUCUUCUACACUAUAUCUCUCUU (ssRNA) [Id_ii_S1_P3E.4_K3.3_C3.2_H3.3_A3.1_F3.1_T3.2_[A10C]]	1460
UCUCUUUAUAUUUUAUCUCUU (ssRNA) [Ib_S1_P4E.1_K4.1_C4.1_H4.1_[G2A]_A4.1_[A6T]_F4.1_T4.1]	163
UCUCUUUUACACUAUAAGUCUCUU (ssRNA) [Id_ii_S1_P3E.4_K3.3_C3.2_[C-2T]_H3.3_A3.1_F3.1_T3.2_[T9A]_[A10G]]	1520
UCUCUUAUACACUAUAAUUCUCUU (ssRNA) [Id_ii_S1_P3E.4_K3.3_C3.2_[C-2A]_H3.3_A3.1_F3.1_T3.2_[T9A]_[A10T]]	43.5
UCUCUUACACACUAUAGAUCUCUU (ssRNA) [Id_ii_S1_P3E.4_K3.3_C3.2_[C-2A]_[T-1C]_H3.3_A3.1_F3.1_T3.2_[T9G]]	> 2300
UCUCUUCCACACUAUACCUCUCUU (ssRNA) [Id_ii_S1_P3E.4_K3.3_C3.2_[T-1C]_H3.3_A3.1_F3.1_T3.2_[T9C]_[A10C]]	> 2300
UCUCUUAAACACUAUAACUCUCUU (ssRNA) [Id_ii_S1_P3E.4_K3.3_C3.2_[C-2A]_[T-1A]_H3.3_A3.1_F3.1_T3.2_[T9A]_[A10C]]	> 2300
UCUCUUAGACACUAUAAAUCUCUU (ssRNA) [Id_ii_S1_P3E.4_K3.3_C3.2_[C-2A]_[T-1G]_H3.3_A3.1_F3.1_T3.2_[T9A]]	> 2300
UCUCUUACACACUAUAUUUCUCUU (ssRNA) [Id_ii_S1_P3E.4_K3.3_C3.2_[C-2A]_[T-1C]_H3.3_A3.1_F3.1_T3.2_[A10T]]	> 2300
UCUCUUCUACACUAUAUGUCUCUU (ssRNA) [Id_ii_S1_P3E.4_K3.3_C3.2_H3.3_A3.1_F3.1_T3.2_[A10G]]	1320
UCUCUUACACACUAUAACUCUCUU (ssRNA) [Id_ii_S1_P3E.4_K3.3_C3.2_[C-2A]_[T-1C]_H3.3_A3.1_F3.1_T3.2_[T9A]_[A10C]]	> 2300
UCUCUUAUACACUAUAGCUCUCUU (ssRNA) [Id_ii_S1_P3E.4_K3.3_C3.2_[C-2A]_H3.3_A3.1_F3.1_T3.2_[T9G]_[A10C]]	45.7
UCUCUUCCACACUAUACAUCUCUU (ssRNA) [Id_ii_S1_P3E.4_K3.3_C3.2_[T-1C]_H3.3_A3.1_F3.1_T3.2_[T9C]]	> 2300
UCUCUUUUACACUAUAUCUCUCUU (ssRNA) [Id_ii_S1_P3E.4_K3.3_C3.2_[C-2T]_H3.3_A3.1_F3.1_T3.2_[A10C]]	1380
UCUCUUUUACACUAUACAUCUCUU (ssRNA) [Id_ii_S1_P3E.4_K3.3_C3.2_[C-2T]_H3.3_A3.1_F3.1_T3.2_[T9C]]	1140
UCUCUUCCACACUAUAAUUCUCUU (ssRNA) [Id_ii_S1_P3E.4_K3.3_C3.2_[T-1C]_H3.3_A3.1_F3.1_T3.2_[T9A]_[A10T]]	> 2300
UCUCUUCAACACUAUAACUCUCUU (ssRNA) [Id_ii_S1_P3E.4_K3.3_C3.2_[T-1A]_H3.3_A3.1_F3.1_T3.2_[T9A]_[A10C]]	> 2300
UCUCUUAGACACUAUAUCUCUCUU (ssRNA) [Id_ii_S1_P3E.4_K3.3_C3.2_[C-2A]_[T-1G]_H3.3_A3.1_F3.1_T3.2_[A10C]]	> 2300
UCUCUUAUACACUAUAACUCUCUU (ssRNA) [Id_ii_S1_P3E.4_K3.3_C3.2_[C-2A]_H3.3_A3.1_F3.1_T3.2_[T9A]_[A10C]]	46.2
UCUCUUUUUAUAAUAUCUCUU (ssRNA) [Ib_S1_P4E.1_K4.1_C4.1_H4.1_[G2T]_A4.1_[T7A]_F4.1_T4.1]	1450

Binder	Kd [nM]
UCUCUUCAACACUAUAGAUCUCUU (ssRNA) [Id_ii_S1_P3E.4_K3.3_C3.2_[T-1A]_H3.3_A3.1_F3.1_T3.2_[T9G]]	> 2300
UCUCUUGCUGUAUAUUACCUCUCUU (ssRNA) [Id_ii_S1_P4E.2_K4.1_C4.2_[C-2G]_[T-1C]_H4.1_A4.1_F4.1_T4.2_[G10C]_[T11C]]	0.957
UCUCUUCCACACUAUAAAUCUCUU (ssRNA) [Id_ii_S1_P3E.4_K3.3_C3.2_[T-1C]_H3.3_A3.1_F3.1_T3.2_[T9A]]	> 2300
UCUCUUCGACACUAUACUUCUCUU (ssRNA) [Id_ii_S1_P3E.4_K3.3_C3.2_[T-1G]_H3.3_A3.1_F3.1_T3.2_[T9C]_[A10T]]	> 2300
UCUCUUCAACACUAUAAAUCUCUU (ssRNA) [Id_ii_S1_P3E.4_K3.3_C3.2_[T-1A]_H3.3_A3.1_F3.1_T3.2_[T9A]]	> 2300
UCUCUUAGACACUAUACCUCUCUU (ssRNA) [Id_ii_S1_P3E.4_K3.3_C3.2_[C-2A]_[T-1G]_H3.3_A3.1_F3.1_T3.2_[T9C]_[A10C]]	> 2300
UCUCUUAAACACUAUAGCUCUCUU (ssRNA) [Id_ii_S1_P3E.4_K3.3_C3.2_[C-2A]_[T-1A]_H3.3_A3.1_F3.1_T3.2_[T9G]_[A10C]]	> 2300
UCUCUUCUACACUAUAAUUCUCUU (ssRNA) [Id_ii_S1_P3E.4_K3.3_C3.2_H3.3_A3.1_F3.1_T3.2_[T9A]_[A10T]]	1870
UCUCUUCUACACUAUAUAUCUCUU (ssRNA) [If_S1_P3E.4_K3.3_C3.2_H3.3_A3.1_F3.1_T3.2]	1000
UCUCUUUUUAUACUAUCUCUU (ssRNA) [Ib_S1_P4E.1_K4.1_C4.1_H4.1_[G2T]_A4.1_[T7C]_F4.1_T4.1]	1060
UCUCUUUUACACUAUAUGUCUCUU (ssRNA) [Id_ii_S1_P3E.4_K3.3_C3.2_[C-2T]_H3.3_A3.1_F3.1_T3.2_[A10G]]	2220
UCUCUUAGACACUAUAAUUCUCUU (ssRNA) [Id_ii_S1_P3E.4_K3.3_C3.2_[C-2A]_[T-1G]_H3.3_A3.1_F3.1_T3.2_[T9A]_[A10T]]	> 2300
UCUCUUAAACACUAUAUUUCUCUU (ssRNA) [Id_ii_S1_P3E.4_K3.3_C3.2_[C-2A]_[T-1A]_H3.3_A3.1_F3.1_T3.2_[A10T]]	> 2300
UCUCUUAUACACUAUACGUCUCUU (ssRNA) [Id_ii_S1_P3E.4_K3.3_C3.2_[C-2A]_H3.3_A3.1_F3.1_T3.2_[T9C]_[A10G]]	74.5
UCUCUUCUACACUAUAGUUCUCUU (ssRNA) [Id_ii_S1_P3E.4_K3.3_C3.2_H3.3_A3.1_F3.1_T3.2_[T9G]_[A10T]]	> 2300
UCUCUUUUACACUAUAUAUCUCUU (ssRNA) [Id_ii_S1_P3E.4_K3.3_C3.2_[C-2T]_H3.3_A3.1_F3.1_T3.2]	1030
UCUCUUAAACACUAUAAAUCUCUU (ssRNA) [Id_ii_S1_P3E.4_K3.3_C3.2_[C-2A]_[T-1A]_H3.3_A3.1_F3.1_T3.2_[T9A]]	> 2300
UCUCUUCUACACUAUAGCUCUCUU (ssRNA) [Id_ii_S1_P3E.4_K3.3_C3.2_H3.3_A3.1_F3.1_T3.2_[T9G]_[A10C]]	> 2300
UCUCUUCUACACUAUACAUCUCUU (ssRNA) [Id_ii_S1_P3E.4_K3.3_C3.2_H3.3_A3.1_F3.1_T3.2_[T9C]]	2230
UCUCUUCGACACUAUAACUCUCUU (ssRNA) [Id_ii_S1_P3E.4_K3.3_C3.2_[T-1G]_H3.3_A3.1_F3.1_T3.2_[T9A]_[A10C]]	> 2300
UCUCUUAUACACUAUACUUCUCUU (ssRNA) [Id_ii_S1_P3E.4_K3.3_C3.2_[C-2A]_H3.3_A3.1_F3.1_T3.2_[T9C]_[A10T]]	36.1

Binder	Kd [nM]
UCUCUUCCACACUAUAUUUCUCUU (ssRNA) [Id_ii_S1_P3E.4_K3.3_C3.2_[T-1C]_H3.3_A3.1_F3.1_T3.2_[A10T]]	> 2300
UCUCUUUUACACUAUAAUUCUCUU (ssRNA) [Id_ii_S1_P3E.4_K3.3_C3.2_[C-2T]_H3.3_A3.1_F3.1_T3.2_[T9A]_[A10T]]	> 2300
UCUCUUCAACACUAUAUCUCUCUU (ssRNA) [Id_ii_S1_P3E.4_K3.3_C3.2_[T-1A]_H3.3_A3.1_F3.1_T3.2_[A10C]]	> 2300
UCUCUUAGACACUAUACAUCUCUU (ssRNA) [Id_ii_S1_P3E.4_K3.3_C3.2_[C-2A]_[T-1G]_H3.3_A3.1_F3.1_T3.2_[T9C]]	> 2300
UCUCUUCCACACUAUAGCUCUCUU (ssRNA) [Id_ii_S1_P3E.4_K3.3_C3.2_[T-1C]_H3.3_A3.1_F3.1_T3.2_[T9G]_[A10C]]	> 2300
UCUCUUCGACACUAUAGCUCUCUU (ssRNA) [Id_ii_S1_P3E.4_K3.3_C3.2_[T-1G]_H3.3_A3.1_F3.1_T3.2_[T9G]_[A10C]]	> 2300
UCUCUUACACACUAUAGUUCUCUU (ssRNA) [Id_ii_S1_P3E.4_K3.3_C3.2_[C-2A]_[T-1C]_H3.3_A3.1_F3.1_T3.2_[T9G]_[A10T]]	> 2300
UCUCUUAUACACUAUAUAUCUCUU (ssRNA) [Id_ii_S1_P3E.4_K3.3_C3.2_[C-2A]_H3.3_A3.1_F3.1_T3.2]	31.3
UCUCUUUUACACUAUACUUCUCUU (ssRNA) [Id_ii_S1_P3E.4_K3.3_C3.2_[C-2T]_H3.3_A3.1_F3.1_T3.2_[T9C]_[A10T]]	1220
UCUCUUUUUAUAGUAUCUCUU (ssRNA) [Ib_S1_P4E.1_K4.1_C4.1_H4.1_[G2T]_A4.1_[T7G]_F4.1_T4.1]	> 2300
UCUCUUCCACACUAUACUUCUCUU (ssRNA) [Id_ii_S1_P3E.4_K3.3_C3.2_[T-1C]_H3.3_A3.1_F3.1_T3.2_[T9C]_[A10T]]	> 2300
UCUCUUCAACACUAUACCUCUCUU (ssRNA) [Id_ii_S1_P3E.4_K3.3_C3.2_[T-1A]_H3.3_A3.1_F3.1_T3.2_[T9C]_[A10C]]	> 2300
UCUCUUUAUAUCUUAUCUCUU (ssRNA) [Ib_S1_P4E.1_K4.1_C4.1_H4.1_[G2A]_A4.1_[A6C]_F4.1_T4.1]	672
UCUCUUAUACACUAUACCUCUCUU (ssRNA) [Id_ii_S1_P3E.4_K3.3_C3.2_[C-2A]_H3.3_A3.1_F3.1_T3.2_[T9C]_[A10C]]	30.1
UCUCUUCGACACUAUAAUUCUCUU (ssRNA) [Id_ii_S1_P3E.4_K3.3_C3.2_[T-1G]_H3.3_A3.1_F3.1_T3.2_[T9A]_[A10T]]	> 2300
UCUCUUAAACACUAUACAUCUCUU (ssRNA) [Id_ii_S1_P3E.4_K3.3_C3.2_[C-2A]_[T-1A]_H3.3_A3.1_F3.1_T3.2_[T9C]]	> 2300
UCUCUUAGACACUAUAUUUCUCUU (ssRNA) [Id_ii_S1_P3E.4_K3.3_C3.2_[C-2A]_[T-1G]_H3.3_A3.1_F3.1_T3.2_[A10T]]	> 2300
UCUCUUUAUAUAGUAUCUCUU (ssRNA) [Ib_S1_P4E.1_K4.1_C4.1_H4.1_[G2A]_A4.1_[T7G]_F4.1_T4.1]	50.5
UCUCUUAUACACUAUACAUCUCUU (ssRNA) [Id_ii_S1_P3E.4_K3.3_C3.2_[C-2A]_H3.3_A3.1_F3.1_T3.2_[T9C]]	34.9
UCUCUUAUACACUAUAUUUCUCUU (ssRNA) [Id_ii_S1_P3E.4_K3.3_C3.2_[C-2A]_H3.3_A3.1_F3.1_T3.2_[A10T]]	38.6
UCUCUUAUACACUAUAUCUCUCUU (ssRNA) [Id_ii_S1_P3E.4_K3.3_C3.2_[C-2A]_H3.3_A3.1_F3.1_T3.2_[A10C]]	40.6
